Settings: Pseudomonas aeruginosa (strain ATCC 15692 / DSM 22644 / CIP 104116 / JCM 14847 / LMG 12228 / 1C / PRS 101 / PAO1); pH 7; 10 °C; GdnHCl; Fluorescence; sodium phosphate 50 mM; reversible: yes; whole UniProt chain shown

B1: Cytochrome c-551 wild type, P00099 (protein)
chain: MKPYALLSLLATGTLLAQGAWAEDPEVLFKNKGCVACHAIDTKMVGPAYKDVAAKFAGQAGAEAELAQRIKNGSQGVWGPIPMPPNAVSDDEAQTLAKWVLSQK
With B1 the denaturant m value was 3.3 kcal/mol/M, the “denaturant midpoint (higher = more stable)” value was 1.8 M and the unfolding free energy was 6.1 kcal/mol.
